Data: PMC4383033, “Architecture of the ring formed by the tubulin homologue FtsZ in bacterial cell division” (eLife, 2014)

B1: Thermotoga maritima FtsA (natural protein, UniProt Q9WZU0 1-419, looked up)
chain: MIDLSKTVFYTSIDIGSRYIKGLVLGKRDQEWEALAFSSVKSRGLDEGEIKDAIAFKESVNTLLKELEEQLQKSLRSDFVISFSSVSFEREDTVIERDFGEEKRSITLDILSEMQSEALEKLKENGKTPLHIFSKRYLLDDERIVFNPLDMKASKIAIEYTSIVVPLKVYEMFYNFLQDTVKSPFQLKSSLVSTAEGVLTTPEKDRGVVVVNLGYNFTGLIAYKNGVPIKISYVPVGMKHVIKDVSAVLDTSFEESERLIITHGNAVYNDLKEEEIQYRGLDGNTIKTTTAKKLSVIIHARLREIMSKSKKFFREVEAKIVEEGEIGIPGGVVLTGGGAKIPRINELATEVFKSPVRTGCYANSDRPSIINADEVANDPSFAAAFGNVFAVSENPYEETPVKSENPLKKIFRLFKELME
notes: FtsA of Thermotoga maritima; 'completely unmodified'; the C-terminal tail (amphipathic helix) was verified by ESMS to be intact after purification; It says 'completely unmodified' with intact C-terminal tails; also called TmFtsA; source: purified as described previously (Szwedziak et al., 2012)

Assays:
[1] = target: the molecule itself; assay: electron cryomicroscopy and cryotomography of liposomes; TmFtsZ (30 uM) and TmFtsA (10 uM) encapsulated in liposomes of E. coli total lipid extract by dilution of CHAPS; 0.5 mM MgGTP, MgGMPCPP or no nucleotide; TEN100 7.5 buffer; room temperature
[2] = target: B1; assay: transmission electron cryomicroscopy of liposomes; proteins on the outside of liposomes of E. coli total lipid extract; TmFtsA 20 uM, TmFtsZ 60 uM or both; 50 mM Tris/HCl, 100 mM NaCl, 1 mM EDTA, 1 mM NaN3, pH 7.5; room temperature; conditions: both partners purified

Row | binding result [2] | Binder | binding result [1]
1 | binds | Thermotoga maritima FtsZ (natural protein, UniProt O08398 1-351, looked up, FtsZ of Thermotoga maritima; 'completely unmodified'; the C-terminal tail was verified by ESMS to be intact after purification; It says 'completely unmodified' with intact C-terminal tails; also called TmFtsZ; source: purified as described previously (Szwedziak et al., 2012)) MGFDLDVEKKKENRNIPQANNLKIKVIGVGGAGNNAINRMIEIGIHGVEFVAVNTDLQVLEASNADVKIQIGENITRGLGAGGRPEIGEQAALESEEKIREVLQDTHMVFITAGFGGGTGTGASPVIAKIAKEMGILTVAIVTTPFYFEGPERLKKAIEGLKKLRKHVDTLIKISNNKLMEELPRDVKIKDAFLKADETLHQGVKGISELITKRGYINLDFADIESVMKDAGAAILGIGVGKGEHRAREAAKKAMESKLIEHPVENASSIVFNITAPSNIRMEEVHEAAMIIRQNSSEDADVKFGLIFDDEVPDDEIRVIFIATRFPDEDKILFPEGDIPAIYRYGLEGLL | binds
2 | – | B1 | binds
